# Laboratory results: patent US20250223361A1 (MABTREE BIOLOGICS, published 2025)
# Positions count from the first letter of the chain named.
# B1: AHP01679 (antibody, human IgG1, lambda, V domains shown)
# VH: EVQLVQSGAEVKKPGSSVKVSCKASGGTFSSYAISWVRQAPGQGLEWMGRIIPILGIANYAQKFQGRVTITADKSTSTAYMELSSLRSEDTAVYYCTTFIQQWLYAFDIWGQGTMVTVSS
# VL: QAVLTQPSSVSGAPGQRVTISCTGSSSNIGAGYDVHWYQQLPGTAPKLLIYGNNNRPSGVPDRFSGSKSGTSASLAITGLQAEDEADYYCQSYDSSLSGSVFGGGTKLTVLG
# notes: Fully human full-length IgG (IgG1 constant region, lambda light chain); also called Parental Ab; parental antibody
# B2: QJ001-45 (antibody, human IgG1, lambda, V domains shown)
# VH: B1 VH with I100F
# VL: B1 VL with T23F, Q91G
# notes: also called P02897
# Key:
# [1] = biological target: T1, human PD-L1.his Protein (human, UniProt Q9NZQ7 19-238, limits assumed); assay: ELISA, coated human PD-L1.his, absorbance at 450 nm; lower table
# T1 construct: Produced in-house (Genscript); also called HuPD-L1-his; not shown: his tag
# [2] = biological target: T1, human PD-L1.his Protein; assay: ELISA, coated human PD-L1.his, absorbance at 450 nm; upper table
# [3] = biological target: T2, human PD-L1 on CHO cells (human, UniProt Q9NZQ7 19-290); assay: cell-based or functional assay
# [4] = biological target: T1, human PD-L1.his Protein; assay: SPR Biacore T200, antibody Fc-captured, antigen as analyte
# Method: The affinity of purified antibody binding to antigen was individually determined using a Surface Plasmon Resonance (SPR) biosensor, BiacoreT200 (GE Healthcare). Antibodies were immobilized on the sensor chip through Fc capture method. Antigen was used as the analyte. The data of dissociation (kd) and association (ka) rate constants were obtained using Biacore T200 evaluation software. The equilibrium dissociation constants (KD) were calculated from the ratio of kd over ka.
# [5] = biological target: T1, human PD-L1.his Protein; assay: GATOR instrument kinetics, HuPD-L1-his
# [6] = biological target: T1, human PD-L1.his Protein; assay: ELISA, coated human PD-L1.his, absorbance at 450 nm
# Method: To evaluate the fully human IgGs binding activity to human PD-L1 protein, ELISA EC50 determination was performed. Briefly, human PD-L1.his protein was coated with 0.5 μg/ml in CBS, 100 μl/well at 4° C., incubated for overnight. Washed three times and blocking with 3% BSA-PBS at 37° C. for 1 hour. Then diluted fully human IgGs in 1% BSA-PBS were added to the blocked wells. […] Incubation at room temperature for 2 hours. […] The plates were washed for additional 6 times and the substrate solution were added to the wells for developing reaction. The absorption was measured at 450nm using a spectrometer.
# [7] = biological target: T2, human PD-L1 on CHO cells; assay: cell-based or functional assay; remark: listed apart in the source
# [8] = biological target: T1, human PD-L1.his Protein; assay: GATOR instrument kinetics, HuPD-L1-his; reference parental antibody AHP01679
# T1 sequence (Q9NZQ7 19-238 limits assumed): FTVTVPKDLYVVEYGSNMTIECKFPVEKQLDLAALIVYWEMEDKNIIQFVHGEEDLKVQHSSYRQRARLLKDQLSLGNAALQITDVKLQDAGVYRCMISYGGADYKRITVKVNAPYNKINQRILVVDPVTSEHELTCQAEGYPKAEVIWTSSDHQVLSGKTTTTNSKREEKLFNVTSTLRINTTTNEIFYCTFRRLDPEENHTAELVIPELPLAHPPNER
# T2 sequence (Q9NZQ7 19-290): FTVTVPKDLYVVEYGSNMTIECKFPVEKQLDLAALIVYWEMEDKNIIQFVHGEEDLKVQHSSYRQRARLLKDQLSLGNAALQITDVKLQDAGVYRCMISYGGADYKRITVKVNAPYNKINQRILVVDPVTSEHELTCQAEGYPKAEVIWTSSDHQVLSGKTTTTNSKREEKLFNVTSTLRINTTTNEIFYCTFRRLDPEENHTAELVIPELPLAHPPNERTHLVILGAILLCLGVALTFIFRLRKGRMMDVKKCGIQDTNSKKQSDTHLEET
molecule,measurement,setting,value
negative control human IgG (antibody),absorbance at 0.00564503 ng/ml,[1],0.058
same,absorbance at 0.01693509 ng/ml,[1],0.067
same,absorbance at 0.05080526 ng/ml,[1],0.061
same,absorbance at 0.15241579 ng/ml,[1],0.064
same,absorbance at 0.45724737 ng/ml,[1],0.057
same,absorbance at 1.37174211 ng/ml,[1],0.065
same,absorbance at 12.345679 ng/ml,[1],0.064
same,absorbance at 37.037037 ng/ml,[1],0.059
same,absorbance at 111.111111 ng/ml,[1],0.067
same,absorbance at 333.333333 ng/ml,[1],0.059
same,absorbance at 1000 ng/ml,[1],0.081
same,absorbance at 1.3717 ng/ml,[2],0.078
same,absorbance at 4.1152 ng/ml,[2],0.052
same,absorbance at 37.0370 ng/ml,[2],0.052
same,absorbance at 111.1111 ng/ml,[2],0.054
same,absorbance at 333.3333 ng/ml,[2],0.058
same,absorbance at 1000 ng/ml,[2],0.069
same,absorbance at 3000 ng/ml,[2],0.121
B1,EC50 (assay not named; EC50 is defined in paragraph 62 as the concentration of antibody required to block binding of PD-1/PD-L1 by 50%),[3],0.163 µg/mL
same,Kd,[4],4.09 nM
same,koff,[4],0.00259 s⁻¹
same,kon,[4],635000 M⁻¹ s⁻¹
same,Kd,[5],0.351 nM
same,koff,[5],0.00132 s⁻¹
same,kon,[5],3.77e+06 M⁻¹ s⁻¹
same,EC50,[6],0.00334 µg/mL
same,"EC50 (read off the curve), PD-1/PD-L1 blockade luciferase reporter assay [panel E]",[7],~0.2 µg/mL
same,"EC50, PD-1/PD-L1 blockade luciferase reporter assay [panel E]",[7],0.153 µg/mL
same,KD (Parental Ab)/KD (Candidate Ab),[8],1 fold
B2,EC50 (assay not named; EC50 is defined in paragraph 62 as the concentration of antibody required to block binding of PD-1/PD-L1 by 50%),[3],0.0966 µg/mL
same,Kd,[5],0.0338 nM
same,koff,[5],0.000145 s⁻¹
same,kon,[5],4.29e+06 M⁻¹ s⁻¹
same,KD (Parental Ab)/KD (Candidate Ab),[8],10.4 fold
